Assay results: PMC5321513 (Structure (London, England : 1993), 2017)
Residue numbers refer to the chain shown, from its start. Read-outs that look alike come from different tables or passages of the source. [ ]: non-standard residue; d: D form. pS = N[C@@H](COP(=O)(O)O)C(=O)O

B1: HSPB6 ACD (residues 72 to 149) (domain or fragment, human, UniProt O14558 72-149, looked up)
chain: GHFSVLLDVKHFSPEEIAVKVVGEHVEVHARHEERPDEHGFVAREFHRRYRLPPGVDPAAVTSALSPEGVLSIQAAPA
B2: 14-3-3σ Clu3 (1-231) (domain or fragment, human)
chain: GPHMERASLIQKAKLAEQAERYEDMAAFMKGAVEKGEELSCEERNLLSVAYKNVVGGQRAAWRVLSSIEQKSNEEGSAAAGPEVREYREKVETELQGVCDTVLGLLDSHLIKEAGDAESRVFYLKMKGDYYRYLAEVATGDDKKRIIDSARSAYQEAMDISKKEMPPTNPIRLGLALNFSVFHYEIANSPEEAISLAKTTFDEAMADLHTLSEDSYKDSTLIMQLLRDNLTLWT
B3: 14-3-3σ Clu1 (1-231) (domain or fragment, human)
chain: B2 chain with A78E, A79E, A80K, K162A, K163A, E164A
B4: full-length pHSPB6 (1-160) (natural protein, human, UniProt O14558 1-160, looked up)
chain: MEIPVPVQPSWLRRASAPLPGLSAPGRLFDQRFGEGLLEAELAALCPTTLAPYYLRAPSVALPVAQVPTDPGHFSVLLDVKHFSPEEIAVKVVGEHVEVHARHEERPDEHGFVAREFHRRYRLPPGVDPAAVTSALSPEGVLSIQAAPASAQAPPPAAAK
modifications: phosphoserine at 16
B5: pHSPB6 (1-149) (domain or fragment, human, UniProt O14558 1-149, looked up)
chain: MEIPVPVQPSWLRRASAPLPGLSAPGRLFDQRFGEGLLEAELAALCPTTLAPYYLRAPSVALPVAQVPTDPGHFSVLLDVKHFSPEEIAVKVVGEHVEVHARHEERPDEHGFVAREFHRRYRLPPGVDPAAVTSALSPEGVLSIQAAPA
modifications: phosphoserine at 16
B6: 14-3-3σ WT (1-231) (domain or fragment, human)
chain: GAMGSMERASLIQKAKLAEQAERYEDMAAFMKGAVEKGEELSCEERNLLSVAYKNVVGGQRAAWRVLSSIEQKSNEEGSEEKGPEVREYREKVETELQGVCDTVLGLLDSHLIKEAGDAESRVFYLKMKGDYYRYLAEVATGDDKKRIIDSARSAYQEAMDISKKEMPPTNPIRLGLALNFSVFHYEIANSPEEAISLAKTTFDEAMADLHTLSEDSYKDSTLIMQLLRDNLTLWT
B7: pHSPB6 (7-153) (domain or fragment, human, UniProt O14558 7-153, looked up)
chain: VQPSWLRRASAPLPGLSAPGRLFDQRFGEGLLEAELAALCPTTLAPYYLRAPSVALPVAQVPTDPGHFSVLLDVKHFSPEEIAVKVVGEHVEVHARHEERPDEHGFVAREFHRRYRLPPGVDPAAVTSALSPEGVLSIQAAPASAQA
modifications: phosphoserine at 16
B8: pHSPB6(11-23) phosphopeptide (peptide, UniProt O14558 11-23, looked up)
peptide: H-WLRRA[pS]APLPGLS-OH
SMILES: CC(C)C[C@H](NC(=O)CNC(=O)[C@@H]1CCCN1C(=O)[C@H](CC(C)C)NC(=O)[C@@H]1CCCN1C(=O)[C@H](C)NC(=O)[C@H](COP(=O)(O)O)NC(=O)[C@H](C)NC(=O)[C@H](CCCNC(=N)N)NC(=O)[C@H](CCCNC(=N)N)NC(=O)[C@H](CC(C)C)NC(=O)[C@@H](N)Cc1c[nH]c2ccccc12)C(=O)N[C@@H](CO)C(=O)O

What was measured:
[1] = biological target: the molecule itself; assay: crystal structure
[2] = biological target: T1, 14-3-3ε (1-232) (human, UniProt P62258 1-232); assay: SEC
T1 sequence: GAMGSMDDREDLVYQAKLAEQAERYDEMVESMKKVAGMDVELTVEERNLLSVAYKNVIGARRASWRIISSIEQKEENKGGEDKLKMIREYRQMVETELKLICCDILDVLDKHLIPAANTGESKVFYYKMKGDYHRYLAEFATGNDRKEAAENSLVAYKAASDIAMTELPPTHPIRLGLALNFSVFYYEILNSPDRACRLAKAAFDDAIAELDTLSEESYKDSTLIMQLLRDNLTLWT

[3] = biological target: T2, full-length human 14-3-3ζ (human, UniProt P63104 1-245); assay: SEC
T2 sequence (looked up): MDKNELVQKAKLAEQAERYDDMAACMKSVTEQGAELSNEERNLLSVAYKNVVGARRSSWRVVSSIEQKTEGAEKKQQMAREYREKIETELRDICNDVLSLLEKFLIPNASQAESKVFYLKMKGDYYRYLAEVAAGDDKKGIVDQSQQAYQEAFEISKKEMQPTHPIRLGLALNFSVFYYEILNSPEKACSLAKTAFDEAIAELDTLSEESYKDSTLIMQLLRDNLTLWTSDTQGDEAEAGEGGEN

[4] = biological target: T3, full-length human 14-3-3γ (human, UniProt P61981 1-247); assay: SEC
T3 sequence (looked up): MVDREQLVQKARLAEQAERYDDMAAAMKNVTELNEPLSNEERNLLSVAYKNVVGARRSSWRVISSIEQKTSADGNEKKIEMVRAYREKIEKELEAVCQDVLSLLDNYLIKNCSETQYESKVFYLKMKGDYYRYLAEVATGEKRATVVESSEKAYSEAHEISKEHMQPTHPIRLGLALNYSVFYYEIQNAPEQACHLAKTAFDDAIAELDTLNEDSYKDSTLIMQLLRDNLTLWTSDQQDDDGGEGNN

[5] = biological target: T4, 14-3-3τ (1-230) (human, UniProt P27348 1-230); assay: SEC
T4 sequence: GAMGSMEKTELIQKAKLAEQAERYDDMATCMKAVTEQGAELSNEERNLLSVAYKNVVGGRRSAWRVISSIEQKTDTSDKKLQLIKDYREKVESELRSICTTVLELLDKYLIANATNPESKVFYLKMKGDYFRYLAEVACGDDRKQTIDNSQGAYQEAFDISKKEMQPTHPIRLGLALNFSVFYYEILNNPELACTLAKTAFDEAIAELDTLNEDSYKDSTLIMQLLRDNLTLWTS

[6] = biological target: T5, 14-3-3η (1-235) (human, UniProt Q04917 1-235); assay: SEC
T5 sequence: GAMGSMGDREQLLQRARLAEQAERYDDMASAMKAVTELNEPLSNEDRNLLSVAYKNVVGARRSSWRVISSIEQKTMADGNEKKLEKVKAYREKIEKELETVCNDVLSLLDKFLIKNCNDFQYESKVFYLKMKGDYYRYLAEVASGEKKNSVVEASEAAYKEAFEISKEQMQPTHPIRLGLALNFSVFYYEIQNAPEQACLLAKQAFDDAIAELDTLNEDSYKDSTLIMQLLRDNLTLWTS

[7] = biological target: T6, 14-3-3β (1-232) (human, UniProt P31946 1-232); assay: SEC
T6 sequence: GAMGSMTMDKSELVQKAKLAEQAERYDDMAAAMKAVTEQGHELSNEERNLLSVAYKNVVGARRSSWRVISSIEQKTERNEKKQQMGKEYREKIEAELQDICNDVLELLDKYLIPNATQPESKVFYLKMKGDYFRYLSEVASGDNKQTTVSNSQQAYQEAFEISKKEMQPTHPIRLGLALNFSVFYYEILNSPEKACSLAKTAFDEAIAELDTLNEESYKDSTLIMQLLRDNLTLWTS

[8] = biological target: B3; assay: crystal structure
[9] = biological target: B6; assay: SEC
[10] = biological target: B3; assay: crystal structure; remark: listed apart in the source
[11] = biological target: B6; assay: other fluorescence titration
[12] = biological target: T3, full-length human 14-3-3γ; assay: ITC
[13] = biological target: B6; assay: ITC

Binder | binding result [1] | binding result [2] | binding result [3] | binding result [4] | binding result [5] | binding result [6] | binding result [7] | also measured
B1 | binds | – | – | – | – | – | – | –
B2 | binds | – | – | – | – | – | – | –
B3 | binds | – | – | – | – | – | – | –
B4 | – | binds | binds | binds | binds | binds | binds | binding result [8]: binds
B5 | – | binds | binds | binds | binds | binds | binds | binding result [9]: binds; binding result [10]: binds
B6 | binds | – | – | – | – | – | – | –
B7 | – | binds | binds | binds | binds | binds | binds | binding result [9]: binds; binding result [8]: binds
B8 | – | – | – | – | – | – | – | IC50 [11]: 28.9 ± 0.9 µM; Kd [11]: 5.2 ± 0.5 µM; Kd [12]: 2.3 ± 0.3 µM; stoichiometry N [12]: 1; Kd [13]: 6.3 ± 0.5 µM; stoichiometry N [13]: 1
